From patent US20030235535A1 (University of California, published 2003)
Each block holds one molecule with its values, some of them ahead of it.

Assays:
[1] = biological target: T1, mouse PK2 receptor (mouse, UniProt Q8K458 1-381); test: cell-based or functional assay
T1 construct: Heptahelical G-protein-coupled receptor; also called mouse PKR2

[2] = biological target: PKR2 stably expressed in Chinese Hamster Ovary cells (CHO-PKR2); test: cell-based or functional assay
[3] = biological target: T1, mouse PK2 receptor; test: radioligand binding assay with iodinated PK2 (FIG. 11)
Source text: An exemplary assay for determining binding of detectably labeled PK2, PK1 or PK2/PK1 chimera to PK2 receptor or PK1 receptor is the radioligand filter binding assay described in Li et al. Molecular Pharmacology 59:692-698 (2001)). […] A variety of other low- and high-throughput assays suitable for detecting selective binding interactions between a receptor and a ligand are known in the art. Such assays include, for example, fluorescence correlation spectroscopy (FCS) and scintillation proximity assays (SPA) reviewed in Major, J. Receptor and Signal Transduction Res. 15:595-607 (1995); and in Sterrer et al., J. Receptor and Signal Transduction Res. 17:511-520 (1997)). Binding assays can be performed in any suitable assay format including, for example, cell preparations such as whole cells or membranes that contain PK2 receptor or PK1 receptor, or substantially purified PK2 receptor polypeptide or PK1 receptor, either in solution or bound to a solid support.

T1 sequence (Q8K458 whole entry): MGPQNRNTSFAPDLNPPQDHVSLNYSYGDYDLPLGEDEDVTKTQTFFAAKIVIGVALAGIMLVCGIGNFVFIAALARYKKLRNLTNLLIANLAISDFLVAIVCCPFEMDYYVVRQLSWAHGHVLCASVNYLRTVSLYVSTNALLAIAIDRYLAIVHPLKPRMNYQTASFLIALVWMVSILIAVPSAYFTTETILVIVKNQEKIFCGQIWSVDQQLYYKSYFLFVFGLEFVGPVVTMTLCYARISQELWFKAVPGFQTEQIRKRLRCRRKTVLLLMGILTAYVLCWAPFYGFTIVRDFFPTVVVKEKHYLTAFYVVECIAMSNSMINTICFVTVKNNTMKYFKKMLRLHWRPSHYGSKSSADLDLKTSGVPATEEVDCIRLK

calcium ion mobilization (PK2 receptor activation assay), printed as kd [1]: 2.9 nM
Molecule: human PK2 (from UniProt Q9HC23 28-129) (ligand)

EC50, calcium mobilization [2]: 7.3 nM
fold stimulation of CLOCK:BMAL1-mediated transcription of the 2.8 kb PK2 promoter (luciferase reporter) [2]: 4 fold
Molecule: purified recombinant mouse PK2 (from UniProt Q9QXU7 27-128) (ligand)

Kd [3]: ~1 nM
B1: ^125I-human PK2 (ligand)
chain: AVITGACDKDSQCGGGMCCAVSIWVKSIRICTPMGKLGDSCHPLTRKVPFFGRRMHHTCPCLPGLACLRTSFNRFICLAQK
modifications: radioiodinated with ^125I (paragraph 77 describes human PK2 radioiodinated at the core Tyr, citing Li et al. 2001)
notes: also called iodinated PK2
